Test system: K4 kissing-loop RNA reporter
Experiment: apparent KD of K4 kissing-loop reporter; higher = weaker reporter binding
Conditions: Eterna round: R107
Method: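 RNA-MaP round R107: designed RNA switches with theophylline, tryptophan, arginine or FMN aptamers are transcribed on-chip within common flanks. They are titrated with a labelled K4 kissing-loop RNA reporter in RNA-MaP buffer (100 mM Tris pH 7.5, 80 mM KCl, 4 mM MgCl2), without ligand or with the indicated ligand. Median apparent KD per design.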

[1] = input ligand: theophylline 20 uM
[2] = input ligand: tryptophan 2.4 mM
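Note: bound reporter read as fluorescence of individual clusters on recovered sequencing chips by microscopy, with normalized cluster intensities fitted with a binding model.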

| Sequence | apparent KD of K4 kissing-loop reporter (input ligand: FMN 200 uM) [nM] | apparent KD of K4 kissing-loop reporter (input ligand: arginine 13.2 mM) [nM] | apparent KD of K4 kissing-loop reporter (input ligand: none) [nM] | apparent KD of K4 kissing-loop reporter [1] [nM] | apparent KD of K4 kissing-loop reporter [2] [nM] |
| --- | --- | --- | --- | --- | --- |
| GGUGACGGCCAGGAGUGAUGUAUAGAAUAGCGAGGACCGGUACGGCCGCCACUCGUGAAGAAAAGGGAGUGAUGUUCCGUAAUGU [Kazoo] | 87.8 | 122 | 75.3 | 126 | 49.5 |
| GGAUCCACCAGUGAUGUUGGAGAAAACUCAAAGGAUAUGACGAAAGUCAGAAGGUUGUAGACUGGACAAAGUCCGGUCGGAUCCA [FmnA 19 A30+U56] | 450 | 504 | 650 | 613 | 475 |
| AUUGUACAAGUGAUGUUUGUUUUUUCCGAAGGAGCGUCUAAUAAGACAGGUAGGUCGCGGAUUCUCUUAAUAAUCAGGUCAUUAA [JR_Nu_ExcArginiA_Sub020] | 364 | 275 | 305 | 281 | 221 |
| AAACUUGCAGUGAUGUUGCAAGUAGGUGAUACCAGCAUCGAAAGAUGCCCUUGGCAGCACCAAAACAUCACUUAGGUGCUGUCUA [(H1)-(H2)-(T1)-(T2)-(H)'-(T)'_Design6] | 757 | 494 | 622 | 603 | 614 |
| AAACGUUGGUCGGAUACCAGUUAGACCGAUAAGGUCAAAACUGGAGUGAUGUUCCCAAAUAACCCUUGGCAGCCGACCGACGAAA [MAT - Same State Theophlline B - Mod of Eli - D12] | 318 | 126 | 214 | 219 | 213 |
| AGAACUGUCUUGGAUACCAGUGAUGUUGGUAUCGAUGUGUGAGUGCAAAGCGUCCCACAUUGCCCUUGGCAGCUAAGACUGUUCA [Omei KL Theo B Exc A v3] | 158 | 134 | 148 | 179 | 144 |
| ACACUAUCGUCAUAGACGGUAGUGAAAAGUGAGGAUAUGAGUGAUGUUAGAAGGCACUAAGACUGUAUCGAAUAGAUACAGUCAA [FmnA 4 #K4BetweenAptamer #OpenEnded] | 803 | 262 | 384 | 292 | 349 |
| UGAUACCAGACUGAUACCAGCGAGUGAUGUUUGCUGAUCUAAAGCAGUCAAAGACUGCCUUGCCCUUGGCAGCAGUCUGGUAUCU [TheoBX 26 #SwitchBubble #StaticStem] | 294 | 235 | 275 | 351 | 264 |
| AGACUACCACACUGUCAAUAGACAGUGUACUAGGAUAUGCUGAUAAGCAGAAGGAGUGAUGUUCCUUGGUAGUCAAUAAAAUAAU [FmnAX 13 U28+U67] | 357 | 237 | 258 | 268 | 238 |
| GGAUUGCCAGUGAUGUUGGCAUAAACUGAAGGAGCGCGUGAAAACGCAGGUAGGUCGCAGAACCUUGCCAACUAUAUUAUUUACC [Ex Arginine A K4 22] | 111 | 137 | 123 | 146 | 102 |
| GGAAGGAAGGGAAGGAGCGCGCAGGCAGUGAUGUUGCCAAACAAAACAAACAAAACAAAAGCGCAGGUAGGUCGCCCGAAGGACG | 67.8 | 92.8 | 89.7 | 126 | 62.9 |
| GGAUCCGCCAGUGAUGUUGGAGAAAACUCCAAGGAUAUGACGAAAGUCAGAAGGUGGUAGACUGGACAAAGUCCGGUCGGAUCCA [FmnA 26 #SwitchBubble #K4Early] | 761 | 331 | 932 | 157 | 442 |
| UUGUUUGGUUGAGAGGUUGGGCGAAAUGAUACCAGUAUAUAAGAAUACCCUUGGCAGCAUAAGAAAGAUAUAGUGAUGUUGUAUA [SSTheophA.L] | 597 | 320 | 431 | 560 | 411 |
| GGCAGAGUGAUGUUCGCCCUUUACCUUGAUACCAGUUCAUCUCAAAACCCUUGGCAGCAAGUGUGUAAGAGCGGUAUUGGUCAAU [theeternabot_exclusion_KL_Theo_A_1] | 356 | 306 | 388 | 359 | 339 |
| AAACAUUGGUCUGAUACCAGUUAGACCGAUAAGGUCAAAACUGGAGUGAUGUUCCCAAAUAACCCUUGGCAGCAGACCGAUGAAA [MAT - Same State Theophlline B - Mod of Eli - D10] | 147 | 66 | 212 | 185 | 231 |
| UGUCAUGGAAACAUGAACGUUAAAAUAAAUCGAGGACCGGUACGGCCGCCACUCGUAUAGCGGUCAGUGAUGUUGACUGUAAUAA [KL-SSTryp-A form2 sub10] | 101 | 121 | 110 | 116 | 94.3 |
| GGAACGUUGCGGACUAUCGCAUAAAGUCACCGAGGACCGGUACGGCCGCCACUCGCCAGUGAUGUUGGCGUGUUUGCGCGCUGUA [Isteri] | 99.6 | 91.1 | 101 | 83.6 | 117 |
| UUCGAAAGUCGAAGGAGCGCUGGCGGUCAUAGACUAUAUCUGUAGUGAUGUUACAGAUUCCAGCAGGUAGGUCGCGACAGAGACA [Arg B SS t18b] | 124 | 88.4 | 107 | 89.8 | 108 |
| GUGCAGUGAUGUUGCACGAGGAAAGACGAUACCAGCCGCAAAUGUGGCCCUUGGCAGCGUGGGCUAGCACAAAAUAUGCUAGUCU [Ricegeusat] | 131 | 113 | 119 | 98.9 | 108 |
| UGAGAGUACCGGAUGGAGAAAUUGUAUGAUACCAGAGCAGAUUACCUCCCUUGGCAGCAUGCAUCCUGCUAGUGAUGUUGGCAAC [theeternabot_sameState_KL_Theo_A_48] | 676 | 459 | 741 | 669 | 535 |
| CUCGAGUGAUGUUCGAUUAUUUAUACAGAUACCAGUGAAUUUUAACACCCUUGGCAGCUGGUUGUAUCUUUGUUUUUUACACAAG [JR_ExcTheophyA_Sub006] | 117 | 177 | 118 | 172 | 107 |
| CGCAGUGAUGUUGCUAUUAUUCUUGAUUAACGAGGACCGGUACGGCCGCCACUCGAUUUCUAUCUGAUCCAGUGUUUUGUUGAGU [#22 K4 Tryptophan A Exclusion] | 296 | 364 | 396 | 360 | 182 |

| Sequence | apparent KD of K4 kissing-loop reporter (input ligand: FMN 200 uM) [nM] | apparent KD of K4 kissing-loop reporter (input ligand: arginine 13.2 mM) [nM] | apparent KD of K4 kissing-loop reporter (input ligand: none) [nM] | apparent KD of K4 kissing-loop reporter [1] [nM] | apparent KD of K4 kissing-loop reporter [2] [nM] |
| --- | --- | --- | --- | --- | --- |
| AAUUUAGUGACGGCCGCCACUAGGGUGAUUUUUUUGUUUGAGUGAUGUUUUGAUGUUUGAUUUUGUAGGACCGGGUUAGGUGAUG [cccmullin] | 327 | 310 | 343 | 364 | 262 |
| GGGAGUAGUGCGGCCGCCACUGAGAAAGAAGAAGAAUAUAGUGAUGUUAUAUAGGAAUAAAAGAAUAGGACCGGGCAUUAGAUUU [SSTRyptB.S] | 165 | 245 | 269 | 215 | 159 |
| UCGGCAGUGAACGAUACCAGCGUCACGUGGCUGGUGGUCACAUGAGUGAUGUUCAUGUAACGCCCUUGGCAGCGUGCGCGUACCG [KL-XTheo-B11] | 113 | 98.1 | 107 | 94.7 | 103 |
| AAAUUUAAUAUAUUUAAUUAAUUAUGUGAUACCAGACAUUUAUAAGUCCCUUGGCAGCACUUUGCAGUGAUGUUGCAUAUAAUAA [JR_SSTheophyA_Sub013] | 89 | 185 | 121 | 157 | 99.2 |
| GAAGGUCAAAGACCUUCGUGCACACCUGAUACCAGUCGCGAAAGCGACCCUUGGCAGCAGGGCAGUGAUGUUGCCAGUGCACAAA [Omei KL Theo A SS A v5] | 194 | 176 | 191 | 164 | 159 |
| UGUCAUUGGUCUGAUACCAGUUGAUGACGAAUACGUCAACUGGAGUGAUGUUCCUAAAACAACCCUUGGCAGCAGACCGAUGACU [TheoBS 1 #SwitchBubble #StaticStem] | 788 | 511 | 658 | 709 | 564 |
| UUAAUAAUUCAAGGAUAUGUUUUCUAUUUCGAGUGAUGUUCGGAAUUAAUAAAUUUAAAAGAUUAUACAGAAGGUGAUAGAUAGU [Cynwulf-mod#3] | 89.5 | 82.5 | 90.9 | 88.1 | 75.9 |
| AAUUUAUUAUCUGAUACCAGACUUUUUCUUGUUUAUAAGUCAAGUGAUGUUUGACUUUUAGUCCCUUGGCAGCAGUAUUUUUUAA [JR_Nu_SSTheophyB_Sub026] | 125 | 128 | 123 | 113 | 114 |
| GCGUGCAAGUCAUGAUGCCCUAUCAGGACUAAGGAUAUAGCGUGACCUAGAAGGUAGCUAGUGAUGUUGGCUGACAUGCUACUGC [theeternabot_exclusion_KL_FMN_A_49] | 482 | 227 | 367 | 376 | 376 |
| UGUAAGCGCGUAGAUACCAGCAAACAAAGAGUGAUGUUCAGAUUAAGGAAAAGAAAGUAAUGCCCUUGGCAGCUAAUCAUAAGCG [Theophylline B Exclusion; Euphoria Solution] | 419 | 409 | 354 | 497 | 319 |
| UAGUGAAUAGAAGGAUAUUGAUAUGAAAGAUGCAGUGAUGUUGCCCGUAGCAGUCAGUAAUACGUGCAAGAAGGUCUGUGCGCGA [theeternabot_exclusion_KL_FMN_B_3] | 65.2 | 95.4 | 69.2 | 127 | 62.4 |
| GACGGGCAGUGAUGUUGCCGGUCUCUUGGACGAGGACCGGUACGGCCGCCACUCGAUCUGAUGCGAGAAUUGUAUCUUUUAAUAA [Tegesosoat] | 250 | 177 | 242 | 346 | 347 |
| UCUCUUCUCAGUGAUGUUGAGUAAUCGGAAGGAGCGCGUGAAAACGCAGGUAGGUCGCCGAUUUGUGAAGUAUCUUCGCAAGAGA [Arginine A K4 26] | 352 | 341 | 412 | 441 | 300 |
| UCUGGUAUAUCUGAUACCAGAGUAUAGUAUCAAUUGCAUAUCCGCAGUGAUGUUGCGGAACUCCCUUGGCAGCAGAUCUAUCUCU [Same State Theophylline B GF 26] | 71.6 | 90.6 | 81.8 | 86.8 | 70 |
| AAACAACGUGACGAUACCAGCUUACUCGGCAAGCCAGUGAUGUUGGUGAAAAGGAGUCAAAGCCCUUGGCAGCGUCGAAGGUCUG [Georbeer] | 332 | 326 | 427 | 150 | 325 |
| CCAAUCUGUUACGAUACCAGUCAAAGAUAUUUGAUCAAUACCCUCACCGAGUGAUGUUCGGACCCUUGGCAGCGUCUGGGAUAGG [ceevmullin] | 228 | 267 | 266 | 281 | 193 |
| AGGUCAGCAGGAAGGAGCGCCCUGACAGGUUGCUGCCGUGGGCAGUGAUGUUGCUCAGUCCGGCAGGUAGGUCGCCUGCUGACCU | 204 | 157 | 153 | 188 | 156 |
| AGACUACCUACACUGUCAAUAGACAGUGACUAGGAUAUGCUGAUAAGCAGAAGGAGUGAUGUUCCUGGUAGUCAAAUAAAAUAAU [FmnAX 12 #SwitchBubble #StaticStem #K4Early] | 498 | 295 | 311 | 323 | 278 |
| UGAUAGGACAGAAGGAGCGGAAGUGAUGUUUCCAAAAGGCUAAGGUGUCAAAAGACACCCUUCCAGGUAGGUCGCUGUCCUAUCU | 237 | 274 | 221 | 260 | 203 |
| UCCUAGGCUCGAAAGAGCCUAGGUAAGACUCAGGAUAUCUGGAAACAGAGAAGGGAGCUACUAGUGAUGUUAGGAAUUCCCAUUU | 116 | 94.7 | 89 | 76.2 | 85.1 |
| UCUGAAGGUGGAGGAUAUUGAUUGAAUCUUGGUCAGGAGUGAUGUUCCGGGAAGCCUUGGAUUCAUCGAGAAGGCCAAGGAUAGU [#10 K4 FMN B Same State] | 144 | 259 | 243 | 306 | 225 |

From the supplement of paper PMC9170038
